Results published in paper PMC5780489, “Characterization of the multimeric structure of poly(A)-binding protein on a poly(A) tail” (Scientific Reports, 2018).

Target: T1, PABPC1 RRM1/2/3/4 (residues 1-370) (human, UniProt P11940 1-370)
T1 construct: human PABPC1, residues 1-370 (RRM1 to RRM4), cloned into pET-42b(+); Used in complex with long poly(A) or A24 RNA; Purification details are in the Supplementary methods; source: E. coli, purified (Glutathione-Sepharose 4B, GST cleaved off, cation exchange, gel filtration)
Assay: NMR titration; 1H-15N HSQC of 15N-labelled Lt2 (100 μM) with RRM1/2/3/4-A24 at 50, 100 and 150 μM; chemical shift changes of W437 side chain, W437 and T438 fitted to a 1:1 model; not saturated; 303 K, 26 mM NaH2PO4 pH 6.0, 100 mM NaCl
Settings: both partners purified

T1 sequence (P11940 1-370): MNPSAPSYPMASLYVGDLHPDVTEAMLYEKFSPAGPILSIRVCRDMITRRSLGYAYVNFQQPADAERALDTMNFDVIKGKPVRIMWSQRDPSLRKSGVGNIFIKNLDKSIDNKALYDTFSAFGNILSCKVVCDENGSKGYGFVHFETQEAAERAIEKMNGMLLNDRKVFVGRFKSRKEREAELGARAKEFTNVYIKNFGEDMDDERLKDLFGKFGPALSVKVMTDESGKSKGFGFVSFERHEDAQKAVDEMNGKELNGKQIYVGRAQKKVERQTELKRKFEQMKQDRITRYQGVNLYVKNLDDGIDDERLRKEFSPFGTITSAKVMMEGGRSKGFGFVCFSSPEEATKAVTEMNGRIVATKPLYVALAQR

Kd: 10 to 54 µM
B1: PABPC1 linker fragment Lt2 (residues 421-470) (peptide, UniProt P11940 421-470, looked up)
chain: AYYPPSQIAQLRPSPRWTAQGARPHPFQNMPGAIRPAAPRPPFSTMRPAS
notes: human PABPC1, residues 421-470, cloned into pGEX-6p-1; Uniformly 15N-labelled for NMR
